In patent publication US20200270586A1:

B1: 427 (peptide)
chain: SSWKRGSMLFRVWINS
B2: 657 (peptide)
chain: DLMLFRVTINSWK
B3: 716 (peptide)
chain: GKMKFRVTIQSWK
B4: 655 (peptide)
chain: ELMLFRVTINSWK
B5: 658 (peptide)
chain: DQMLFRVTINSWK
B6: 614 (peptide)
chain: GKMLFRVSINSWK
B7: 673 (peptide)
chain: GKMLFRVTIKKWK
B8: 710 (peptide)
chain: EKMLFTVTIGKWK
B9: 652 (peptide)
chain: RQMLFRVTINSWK
B10: 754 (peptide)
chain: DKLLFKVTIEKWK
B11: 749 (peptide)
chain: DKMLFTVTIGKWK
B12: 653 (peptide)
chain: KLMLFRVTINSWK
B13: 740 (peptide)
chain: DKMLFRVTIGNWK
B14: 672 (peptide)
chain: GKMLFRVTITKWK
B15: 751 (peptide)
chain: DKLLFKVTIGKYK
B16: 722 (peptide)
chain: DKMLFRVTIESWK
B17: 741 (peptide)
chain: DKMLFRVTIQNWK
B18: 711 (peptide)
chain: EKLLFTVTIGKWK
B19: 656 (peptide)
chain: EQMLFRVTINSWK
B20: 703 (peptide)
chain: GKMLFRVTIEKWK
B21: 755 (peptide)
chain: DKLLFKVTIEKYK
B22: 618 (peptide)
chain: GKMNFRVTINSWK
B23: 718 (peptide)
chain: GKMKFRVTIKSWK
B24: 714 (peptide)
chain: EKMLFKVTIQKWK
B25: 738 (peptide)
chain: DKMLFRVTIQKWK
B26: 753 (peptide)
chain: DKMLFTVTIEKWK
B27: 748 (peptide)
chain: DKMLFKVTIGKWK
B28: 651 (peptide)
chain: RLMLFRVTINSWK
B29: 617 (peptide)
chain: GKMWFRVTINSWK
B30: 712 (peptide)
chain: EKMLFTVTIGRWK
B31: 742 (peptide)
chain: DKMLFRVTIEKWK
B32: 621 (peptide)
chain: GKMLFRVTIKSWK
B33: 750 (peptide)
chain: DKLLFKVTIGKWK
B34: 707 (peptide)
chain: EKMLFRVTIEKWK
B35: 701 (peptide)
chain: GKMLFRVTINRWK
B36: 708 (peptide)
chain: EKMLFRVTIGKWK
B37: 669 (peptide)
chain: GKMLFRVTIGNWK
B38: 616 (peptide)
chain: GKMSFRVTINSWK
B39: 747 (peptide)
chain: DKLLFKVTIQKYK
B40: 615 (peptide)
chain: GKMLFRVWINSWK
B41: 709 (peptide)
chain: EKMLFRVTIGRWK
B42: 739 (peptide)
chain: DKMLFRVTIGKWK
B43: 654 (peptide)
chain: KQMLFRVTINSWK
B44: 726 (peptide)
chain: EKLLFRVTIGKYK
B45: 613 (peptide)
chain: GKMLFRVNINSWK
B46: 719 (peptide)
chain: GKMKFRVTIRSWK
B47: 752 (peptide)
chain: DKMLFKVTIEKWK
B48: 744 (peptide)
chain: DKMLFKVTIQKWK
B49: 720 (peptide)
chain: EKMLFTVTIEKWK
B50: 676 (peptide)
chain: RLMLFRVTIGKWK
B51: 619 (peptide)
chain: GSMLFRVTINSYK
B52: 717 (peptide)
chain: GKMKFRVTIESWK
B53: 746 (peptide)
chain: DKLLFKVTIQKWK
B54: 670 (peptide)
chain: GKMLFRVTISKWK
B55: 800 (peptide)
chain: DKLLFTVTINKYK
B56: 760 (peptide)
chain: KKMLFRVTIQKWK
B57: 762 (peptide)
chain: DRMLFRVTIQRWR
B58: 794 (peptide)
chain: DKLLFTVTIGKYK
B59: 766 (peptide)
chain: ERMLFRVTIGRWR
B60: 761 (peptide)
chain: KKLLFRVTIQKWK
B61: 785 (peptide)
chain: DKMLFKVTIEKYK
B62: 783 (peptide)
chain: DKMLFKVTIQKYK
B63: 770 (peptide)
chain: DRMLFRVTIERWR
B64: 787 (peptide)
chain: DKMLFKVTINKWK
B65: 784 (peptide)
chain: DKMLFRVTINKWK
B66: 786 (peptide)
chain: DKMLFTVTINKWK
B67: 799 (peptide)
chain: DKLLFTVTINKWK
B68: 781 (peptide)
chain: GKMLFKVTINKWK
B69: 782 (peptide)
chain: GKMLFTVTINKWK
B70: 768 (peptide)
chain: GRMLFRVTINRWR
B71: 793 (peptide)
chain: DKLLFTVTIGKWK

Each binder was assayed against LgTrip 3546 (with His tag; SEQ ID NO: 51) (assay: not given). Settings: modification not given.
Chain of LgTrip 3546 (with His tag; SEQ ID NO: 51) (chain, as listed by the source): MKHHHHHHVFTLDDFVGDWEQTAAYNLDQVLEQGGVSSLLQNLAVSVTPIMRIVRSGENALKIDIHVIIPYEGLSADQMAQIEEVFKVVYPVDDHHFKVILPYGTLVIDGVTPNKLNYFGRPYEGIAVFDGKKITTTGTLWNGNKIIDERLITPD

B1 showed a Kd of 230 nM.

The binders below were run against LgTrip 3546 (with His tag; SEQ ID NO: 51) (assay: luminescence complementation). Settings: modification not given.

In order of falling Kd:
1. B16  17800 nM
2. B4  15900 nM
3. B17  12600 nM
4. B19  6260 nM
5. B45  5250 nM
6. B5  4380 nM
7. B13  3650 nM
8. B22  2690 nM
9. B6  2580 nM
10. B11  1700 nM
11. B51  1510 nM
12. B21  1450 nM
13. B8  1290 nM
14. B38  1230 nM
15. B52  1140 nM
16. B48  1130 nM
17. B34  1120 nM
18. B53  1100 nM
19. B10  750 nM
20. B31  750 nM
21. B44  640 nM
22. B15  610 nM
23. B18  500 nM
24. B27  440 nM
25. B23  380 nM
26. B37  380 nM
27. B30  370 nM
28. B46  370 nM
29. B49  360 nM
30. B33  350 nM
31. B40  350 nM
32. B29  320 nM
33. B47  320 nM
34. B3  290 nM
35. B36  280 nM
36. B25  230 nM
37. B24  220 nM
38. B42  200 nM
39. B41  180 nM
40. B12  160 nM
41. B26  120 nM
42. B35  120 nM
43. B20  110 nM
44. B39  100 nM
45. B2  70 nM
46. B43  60 nM
47. B7  40 nM
48. B28  40 nM
49. B32  40 nM
50. B9  30 nM
51. B54  30 nM
52. B50  20 nM
53. B14  10 nM

What follows are binders tested against LgTrip 3546 (with His tag; SEQ ID NO: 51) (assay: luminescence complementation; SmTrip9 Kd). Settings: modification not given.

In order of falling Kd:
1. B55  9750 nM
2. B11  1060 nM
3. B31  1000 nM
4. B64  730 nM
5. B71  540 nM
6. B66  500 nM
7. B65  410 nM
8. B61  380 nM
9. B68  380 nM
10. B69  360 nM
11. B63  350 nM
12. B62  240 nM
13. B58  230 nM
14. B67  210 nM
15. B26  150 nM
16. B57  120 nM
17. B25  110 nM
18. B70  100 nM
19. B59  70 nM
20. B56  20 nM
21. B60  20 nM
